The target of the assay is human CD3 (human, UniProt P07766 23-207; P04234 22-171; P09693 23-182). Kind of assay: cell-based or functional assay.

Residue numbers refer to the chain shown, from its start.

Sequence of human CD3 (P07766 23-207, chain 1 of 3): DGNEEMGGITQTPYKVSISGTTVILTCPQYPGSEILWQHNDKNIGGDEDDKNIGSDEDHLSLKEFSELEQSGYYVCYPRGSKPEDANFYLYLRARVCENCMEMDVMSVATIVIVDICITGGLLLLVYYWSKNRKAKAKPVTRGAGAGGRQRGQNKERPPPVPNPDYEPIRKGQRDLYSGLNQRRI
Sequence of human CD3 (P04234 22-171, chain 2 of 3): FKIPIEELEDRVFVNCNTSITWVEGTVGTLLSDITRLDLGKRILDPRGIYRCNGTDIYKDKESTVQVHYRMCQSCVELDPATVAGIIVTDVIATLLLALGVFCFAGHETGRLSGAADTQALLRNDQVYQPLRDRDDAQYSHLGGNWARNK
Sequence of human CD3 (P09693 23-182, chain 3 of 3): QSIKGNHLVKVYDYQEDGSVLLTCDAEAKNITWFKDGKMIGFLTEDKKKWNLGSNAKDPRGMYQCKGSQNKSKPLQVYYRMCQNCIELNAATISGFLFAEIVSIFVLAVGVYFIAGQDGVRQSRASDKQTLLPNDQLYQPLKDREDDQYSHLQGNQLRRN

B1: mAb 114 (antibody, V domains shown)
VH: EVQLVESGGGLVKTGGSLRLSCVASGFSFKKAWMNWVRQAPGKGLEWVGRIKRNTDGGPADYAAPVKGRFTLSRDDSKKTLYLQMNSLKTEDTAVYYCTTLDSSSWYVGYYYMDVWGKGTTVTVSS
VL: DIQMTQSPSSVSASVGDRVIITCRASQDINNWLAWYLQRPGKAPKLLIYAASSLQSGVPSRFSGSGSGTDFTLTIGSLQPEDFATYYCQQAHSLPITFGQGTRLEIQ
As for B1, the “CD4 EC50 (nM); CD69/CD25 on human T cells, plate-coated antibody” value (from here on “CD4 EC50 (nM); CD69/CD25”) came out at 12.6 nM and the “CD8 EC50 (nM); CD69/CD25 on human T cells, plate-coated antibody” value (shortened to “CD8 EC50 (nM); CD69/CD25”) came to 12.5 nM.

B2: mAb 117 (antibody, V domains shown)
VH: B1 VH with P59T, A60T, K79N, W106L
VL: B1 VL with I20T, L37Q, R39K, A50T, G76S, Q107K
On to B2, for which the “CD4 EC50 (nM); CD69/CD25” value was determined as 6.49 nM and the “CD8 EC50 (nM); CD69/CD25” value amounted to 6.59 nM.

B3: mAb 123 (antibody, V domains shown)
VH: DVQLVESGGGTVKTGGSLRLSCVASGFSFKKAWMNWVRQAPGKGLEWVGRIKKNSDDGTADYAAPVKGRFTISRDDSKRTLFLQMNSLQTEDTAVYYCTTLDSSSWFVGYYYMDVWGKGTTVTVSS
VL: B1 VL with L37Q, R39K, A50T, G68V, T69S, G76D, Q107K
Turning to B3, the “CD4 EC50 (nM); CD69/CD25” value worked out at 11.7 nM and the “CD8 EC50 (nM); CD69/CD25” value is 11.6 nM.

B4: mAb 115 (antibody, V domains shown)
VH: B1 VH with L18H, T55S, P59T, A60T, T71I, K79N
VL: B1 VL with I20T, L37Q, R39K, L46I, A50T, S53N, G76S, Y87F, S93G, Q107K
Regarding B4, the “CD4 EC50 (nM); CD69/CD25” value stood at 7 nM and the “CD8 EC50 (nM); CD69/CD25” value is 7.16 nM.

B5: mAb 116 (antibody, V domains shown)
VH: B1 VH with T55S, P59T, A60T, K79N
VL: B1 VL with S9F, I20T, L37Q, R39K, L46I, A50T, G76S, Q107K
For B5, the “CD4 EC50 (nM); CD69/CD25” value was 6.96 nM and the “CD8 EC50 (nM); CD69/CD25” value was found to be 7.01 nM.

B6: mAb 120 (antibody, V domains shown)
VH: B1 VH with P59T, Y82F, W106Y
VL: B1 VL with I20T, L37Q, R39K, A50T, Q107K
For the molecule B6, the “CD4 EC50 (nM); CD69/CD25” value stood at 6.41 nM and the “CD8 EC50 (nM); CD69/CD25” value was found to be 6.46 nM.

B7: mAb 118 (antibody, V domains shown)
VH: EVQLVESGGGLVQPGRSLRLSCAASGFTFDDYTMHWVRQAPGKGLEWVSGISWNSGSIGYADSVKGRFTISRDNAKNSLYLQMNSLRAEDTALYYCSKDSSGYGYYLNYSLDVWGKGTTVTVSS
VL: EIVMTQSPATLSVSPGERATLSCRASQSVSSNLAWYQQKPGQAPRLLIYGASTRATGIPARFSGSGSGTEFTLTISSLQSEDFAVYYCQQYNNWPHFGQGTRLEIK
Take B7: the “CD4 EC50 (nM); CD69/CD25” value is 10.4 nM and the “CD8 EC50 (nM); CD69/CD25” value was found to be 11.2 nM.

B8: mAb 121 (antibody, V domains shown)
VH: B7 VH with A24T, D30A, G59D, N77K, Y95F, S97A, Y105H, L107Y, N108F, S110Y
VL: EIVMTQSPGTLSVSPGKRATLSCRASQSVSSNLAWYQQKPGQGPRLLIYSTSTRATGIPARFSGSGSGTEFTLTISSLQSEDSAVYYCQHYNNWPHFGQGTRLEIK
On to B8, for which the “CD4 EC50 (nM); CD69/CD25” value was determined as 12.3 nM and the “CD8 EC50 (nM); CD69/CD25” value is 12.3 nM.

B9: mAb 119 (antibody, V domains shown)
VH: B7 VH
VL: EIVMTQSPATLSVSPGERATLSCRASQSVSNLAWYQQKPGQAPRLLIYGASTRATGIPARFSGSGSGTEFTLTISSLQSEDFAVYYCQQYNNWPHFGQGTRLQIK
As for B9, the “CD4 EC50 (nM); CD69/CD25” value was determined as 12.9 nM and the “CD8 EC50 (nM); CD69/CD25” value worked out at 13.8 nM.

The record behind these values is patent US20230295310A1 (ABCELLERA BIOLOGICS, published 2023).
